Our source for the Km and Vmax values is article PMC4595200, “In vitro analyses of mitochondrial ATP/phosphate carriers from Arabidopsis thaliana revealed unexpected Ca^2+-effects” (BMC Plant Biology, 2015).

Substrate in data set [1]: Nc1ncnc2c1ncn2[C@@H]1O[C@H](COP(=O)(O)OP(=O)(O)O)[C@@H](O)[C@H]1O
Description: radiolabelled uptake into proteoliposomes. To be noted: ADP import / ATP export (ATP-loaded, 5 mM), no added Ca2+ or Mg2+, pH 7.5, 30 °C, 2.5 min, labelled compound, apparent. It is filed as biochemical, Arabidopsis thaliana.

Substrate in data set [2]: Nc1ncnc2c1ncn2[C@@H]1O[C@H](COP(=O)(O)OP(=O)(O)OP(=O)(O)O)[C@@H](O)[C@H]1O
Description: radiolabelled uptake into proteoliposomes. It is filed as biochemical, Arabidopsis thaliana. To be noted: ATP import / Pi export (Pi-loaded, 5 mM), no added Ca2+ or Mg2+ (traces ~9 μM each), pH 7.5, 30 °C, 2.5 min, labelled compound, apparent.

Substrate in data set [3]: Nc1ncnc2c1ncn2[C@@H]1O[C@H](COP(=O)(O)OP(=O)(O)O)[C@@H](O)[C@H]1O
Put plainly: purified protein. To be noted: ADP import / ATP export (ATP-loaded, 5 mM), no added Ca2+ or Mg2+, pH 7.5, 30 °C, 2.5 min, labelled compound, apparent.

Substrate in data set [4]: Nc1ncnc2c1ncn2[C@@H]1O[C@H](COP(=O)(O)OP(=O)(O)OP(=O)(O)O)[C@@H](O)[C@H]1O
Put plainly: purified protein. To be noted: ATP import / Pi export (Pi-loaded, 5 mM), no added Ca2+ or Mg2+ (traces ~9 μM each), pH 7.5, 30 °C, 2.5 min, labelled compound, apparent.

B1: AtAPC3 (Arabidopsis thaliana) (protein)
chain: MESSKPKNRNPMKKPVSITMEHVLLALRETMDEREIRIRSLFDFFDNSNLGFLDYAQIEKGLASLQIPPEYKYARDLFRVCDANRDGRVDYQEFRRYIDAKELELYRIFQAIDVEHNGCILPEELWEALVKAGIEIDDEELARFVEHVDKDNNGTITFEEWRDFLLLYPHEATLENIYHHWERVCLIDIGEQAVIPDGISKHVKRSRLLLAGGLAGAVSRTATAPLDRLKVVLQVQRAHAGVLPTIKKIWREDKLMGFFRGNGLNVMKVAPESAIKFCAYEMLKPMIGGEDGDIGTSGRLMAGGMAGALAQTAIYPMDLVKTRLQTCVSEGGKAPKLWKLTKDIWVREGPRAFYKGLFPSLLGIVPYAGIDLAAYETLKDLSRTYILQDTEPGPLIQLSCGMTSGALGASCVYPLQVVRTRMQADSSKTTMKQEFMNTMKGEGLRGFYRGLLPNLLKVVPAASITYIVYEAMKKNMALD
Turning to B1, in data set [1], the Km is 72 (±5) μM and the Vmax is given as 770 (±90) nmol mg protein^-1 h^-1. In addition, in data set [2], the Km is 113 (±17) μM and the Vmax is 282 (±20) nmol mg protein^-1 h^-1.

B2: AtAPC1 (Arabidopsis thaliana) (protein)
chain: MEAEKSKQNPGKKPVEATMEHVLVALRETKEKREIRIQKLFEFFDNSKLGFLDDTQIEKGLSSLSIPPKYRYASDFLKVCDSNRDGRVDYQEFRRYMDAKELELYKIFQAIDIEHNGDICPAELWEALDKAGIKIKDEELASFMEHVDKDNNGIITFEEWRDFLLLNPHEATIENIYHHWERVCLIDIGEQAVIPDGISAHAQRSKLLLAGGIAGAVSRTATAPLDRLKVALQVQRTNLGVVPTIKKIWREDKLLGFFRGNGLNVAKVAPESAIKFAAYEMLKPIIGGADGDIGTSGRLLAGGLAGAVAQTAIYPMDLVKTRLQTFVSEVGTPKLWKLTKDIWIQEGPRAFYRGLCPSLIGIIPYAGIDLAAYETLKDLSRAHFLHDTAEPGPLIQLGCGMTSGALGASCVYPLQVIRTRMQADSSKTSMGQEFLKTLRGEGLKGFYRGIFPNFFKVIPSASISYLVYEAMKKNLALD
For the protein B2, the Km is 180 (±15) μM in the data set “purified protein [3]” and 68 (6) μM in “purified protein [4]”. For the same protein, the Vmax in “purified protein [3]” was 2078 (±315) nmol mg protein^-1 h^-1; in “purified protein [4]” it was 201(±14) nmol mg protein^-1 h^-1.

B3: AtAPC2 (Arabidopsis thaliana) (protein)
chain: MEATKSSKQNCCNPVKKPGPVSIDHVLLALRETREERDLRIRSLFSFFDSENVGYLDCAQIEKGLCALQIPSGYKYAKELFRVCDANRDGRVDYHEFRRYMDDKELELYRIFQAIDVEHNGCISPEGLWDSLVKAGIEIKDEELARFVEHVDKDNDGIIMFEEWRDFLLLYPHEATIENIYHHWERVCLVDIGEQAVIPEGISKHIKRSNYFIAGGIAGAASRTATAPLDRLKVLLQIQKTDARIREAIKLIWKQGGVRGFFRGNGLNIVKVAPESAIKFYAYELFKNAIGENMGEDKADIGTTVRLFAGGMAGAVAQASIYPLDLVKTRLQTYTSQAGVAVPRLGTLTKDILVHEGPRAFYKGLFPSLLGIIPYAGIDLAAYETLKDLSRTYILQDAEPGPLVQLGCGTISGALGATCVYPLQVVRTRMQAERARTSMSGVFRRTISEEGYRALYKGLLPNLLKVVPAASITYMVYEAMKKSLELD
With B3, in data set [1], the Km is 374 (±40) μM and the Vmax is on record as 778 (±82) nmol mg protein^-1 h^-1. In data set [2], the Km is reported as 95 (±12) μM and the Vmax is listed as 212 (±24) nmol mg protein^-1 h^-1.
